The DeepSol protein solubility set

Test: soluble on expression in E. coli; label from the status in PepcDB or PDB records

Soluble on expression in E. coli, soluble:
TVQVPVYSEQEYQLYLHDDAWTKAETDHLFDLSRRFDLRFVVIHDRYDHQQFKKRSVEDLKERYYHICAKLANVRAVPGTDLKIPVFDAGHERRRKEQLERLYNRTPEQVAEEEYLLQELRKIEARKKEREKRSQDLQKLITAADTTAEQRRTERKAPKKKLPQKKEAEKPAVPETAGIKFPDFKSAGVTLRSQRMKLPSSVGQKKIKALEQMLLELGVELSPTPTEELVHMFNELRSDLVLLYELKQACANCEYELQMLRHRHEALARAGVLGGPATPASGPGPASAEPAVTEPGLGPDPKDTIIDVVGAPLTPNSRKRRESASSSSSVKKAKKP
FVLTPGNPRWENTHLTYRIENYTPDLSREDVDRAIEKAFQLWSNVSPLTFTKVSEGQADIMISFVRGDHRDNSPFDGPGGNLAHAFQPGPGIGGDAHFDEDERWTKNFRDYNLYRVAAHELGHSLGLSHSTDIGALMYPNYIYTGDVQLSQDDIDGIQAIYGPSENPVQPSGPQTPQVCDSKLTFDAITTLRGELMFFKDRFYMRTNSFYPEVELNFISVFWPQVPNGLQAAYEIADRDEVRFFKGNKYWAVRGQDVLYGYPKDIHRSFGFPSTVKNIDAAVFEEDTGKTYFFVAHECWRYDEYKQSMDTGYPKMIAEEFPGIGNKVDAVFQKDGFLYFFHGTRQYQFDFKTKRILTLQKANSWFNCRKN
ALIDVVVVCDESNSIYPWDAVKNFLEKFVQGLDIGPTKTQVGLIQYANNPRVVFNLNTYKTKEEMIVATSQTSQYGGDLTNTFGAIQYARKYAYSAASGGRRSATKVMVVVTDGESHDGSMLKAVIDQCNHDNILRFGIAVLGYLNRNALDTKNLIKEIKAIASIPTERYFFNVSDEAALLEKAG
MIGSYALSILDEAEVLVDLLTGGAPKVNKIFLITSSRRKRPDYYGELESCLKEMDLNLEIITVDDVSNFFEVYLILEKICELEGTPKWVNVGSGHGIMLSALAVHAFIKDALLVAFDKEEKKVIVTDIKKLKRIKIYQKRYFELISELGEGEKTITELSKIFNLSRSAMSRRLKHMETLNIVVRKGTGRSNIPYVFKLTELGRKLL

Soluble on expression in E. coli, not soluble:
MAHHHHHHMKNALEQLDRHPLVNFQMDVSPLYSALKNIMQEQIQQAQLQEKISQRLTNLEAEVRSVGVRQKEFEDSLDALTPDAKLQTQQTLKELSTNIKNLTSDMKKVRYDVGEAMRTAVDAKRGIHDLESELLSIRQQQRDFSDLHQEVMREHLKFTAAVKDIRWKIEEQEKLIQEFSQVKPQNTSEVDESKLHGMLSALCERTDQNFRSVEESSFAVDAELTRLRADMKFVQNEVRMLRSELHRGGNHLRRDVGCRRQSPHGGSQGADKSALRNEEHLNGYESASTQGAL
MSLGQSKVVYLNTHSTSSAGVETLNELCRLAEPGLETMLRQALDQVDDALFDRAERAANNADQALFFATMRQVRMSRRMVVQTFTQEMESAFSRLTQPHSSQTQEPAATAREDYSLELMDETVVEERVAAETVVGKLRTRSVFPLAQLQSRLDYLVVERKVDERNNPLDPRQVVDAFAVAMERLNIEIQPKLIIFKLFEKQALRQLPALYEAANRLLIDAGIMPKLRATGEPLVANEDRVQAPESGHQTSVDSEADTLTGNGSATLELLQGLLAQARGGNQPVPSTARCAGGASHSDLVQALSALQQQPRFANNETGGAQPFAAEELKALLGSALFVAPGGLPQPIERAADDTIDIVSMLFDIILDDSRLAPSIKAVIARLQIPVLKVAMLDRSFFNSRQHPARALINELAHAAMGWVEPENPSADPLYRKMNEVMNRILEGFEEDIVLFEQVLQDFRLFLEQERERAQTVEARTCQAAEGKAKVEDARERVQAEIERRLRGGSVPSVVHQILEGPWFKVLFITCVKDGPQGAVWESQLELMDRLIWSVQPNADPERRQDVLARIPALLNDLREGLNAILYNPFEMTRLFEELEAEHIRCLSAPPADLSDNTVNVEQGSEDESAFAQEGSSYDCDEPSVAAEPPQLTEEQCLREECLQRLVRVDLGTWFEFSTDAGRQLRAKLSARLNGGRRLIFVNRAGFKLADKKTEEVAADLSSGKAFILDHNMLFDKALEQVITNLRDLRVEQAEGHHHHHH
MLAMKLGIVGLGGWVTGAHIPALTDLGIKVDYCADIDEKRVKDLSQKTGCKGYLDYKEMLRNENPDLVLVAVPHSLHAIIALDAINNDANVYVEKPMATSFQEALTLVEASRKRNKILVVGHENRFNPAMLIAKKLIRGGEVGKIYHMRGFYIRQRGIPTSPTFIKKDLAKGGAVFDIGTHIIDLLLFLSDFPTPKSVTGKTYNAFSEDKTKFSAYPSPNLPNFKVEVEDFGSAFLKLGDEISAYVEVSWASYIKENKMEVVILGDNGGIHIDNGVLNFMRNIEDELFISSPLTQQKGSVYREVWRTVMESISKGFPEYPLCSAEQGAIGVAILESIYKSALEGREVKIDIPQWFLKQFQPRALEHHHHHH
